Assay results published in patent publication US20230365696A1 (SYNTHEKINE, published 2023).

B1: DR920 (VHH)
VHH: EVQLVESGGGLVQAGGSLRLSCAASGRSFANYAMGWFRQAPGKERETVAAISRGGGSTWYADSVKGRFTISKDNAKNTVYLQMNSLKPEDTAIYYCAARSYSGSYTYSFGEYDYWGQGTQVTVSS
notes: also called hIFNgR1 VHH
B2: DR916 (VHH)
VHH: EVQLVESGGGLVQPGGSLRLSCTASGRPRTTYAMGWFRQAPGKEREIVAAISKAGGSTYVADSAKGRFAISKDNAKNTVYLQMNSLKPEDTAVYYCAARAGFAAQIFEYDYWGQGTLVTVSS
notes: also called hIFNgR1 VHH
B3: DR921 (VHH)
VHH: QVQLVESGGGLVQAGDSLRLSCAASGRTFTFSTHNMGWFRQAPGKEREFVGGIMWTSRASYADSVKGRFTVSRDNAKNTVYLQMNSLKPEDTAVYYCAAAWYGNSGASYDYWGQGTQVTVSS
notes: also called hIFNgR1 VHH
B4: DR922 (VHH)
VHH: QVQLVESGGGLVRAGGSLRLSCAASGSITSINTMGWFRQAPGKQRELVAAITSGGSTNYADSVKGRFTISRDNARNTVYLQMYSLKPEDTAVYYCEADSMYFRGQGTQVTVSS
notes: also called hIFNgR1 VHH
B5: DR903 (VHH)
VHH: EVQLVESGGGLVQAGGSLRLSCAASGRIASDYTRGWFRQAPGKEREFVAAIIRSVGDSYYADSVKGRFTISIDNAENTVYLQMNSLKPEDTAVYYCAVGGHLYYGSRWRYPASYDYWGQGTQVTVSS
notes: also called hIFNgR1 VHH
B6: DR913 (VHH)
VHH: EVQLVESGGGLVQAGGFLRLSCAASGRTFSSYAMGWFRQIPGKERELVAAISSWSGGSTYYADSVKGRFTISRDNAKNTVYLQMLSLKPEDTAVYYCTTGDYYSDYFKYDNENWGKGTQVTVSS
notes: also called hIFNgR1 VHH
B7: DR926 (VHH)
VHH: EVQLVESGGGLVQAGGSLRLSCAASGRTFSRYAMNWFRQAPGKEREFVAAISWSSGNTYVADSVKGRFTISRDNAKNTMYLQMNNLAPEDTAVYYCAATTIATMSDENTYWGQGTQVTVSS
notes: also called hIFNgR1 VHH
B8: DR912 (VHH)
VHH: EVQLVESGGGLVQAGGSLRLSCAPSGRTFSSYAMAWFRQPPGKEREFVAAITVSGASTYYADSVKGRFTISRDNAKNSMYLQMNSLKPEDTAVYYCAAGGPGTIFPDYDYWGQGTQVTVSS
notes: also called hIFNgR1 VHH
B9: DR925 (VHH)
VHH: EVQLVESGGGLVQAGGSLVLSCAASGRTFSRYAMGWFRQAPGKEREFVAAISIGGGSADYADTVKGRFTISRNNAKNTMYLQMNSLKPEDTAVYYCAARTPRPSSSYFTPQDYEYWGQGTLVTVSS
notes: also called hIFNgR1 VHH
B10: DR915 (VHH)
VHH: EVQLVESGGGLVQAGGSLRLSCAAARRTLHNFAMAWFRQAPGKEREFVAAISKGGGSADYADSVKGRFTISRDNAKNTVYLQMNSLKPEDTAVYYCAANDLASYSDSSYTSTSRYDYWGQGTQVTVSS
notes: also called hIFNgR1 VHH
B11: DR914 (VHH)
VHH: EVQLVESGGGLVQAGGSLTLSCVASGRAFSNSAMAWFRQTPGKEREFVSAISRGGGSTDYADSVKGRFTISKDNAKNTVYLQMNSLKPEDTAVYYCAMRYYSGRYYESLEYDYWGQGTQVTVSS
notes: also called hIFNgR1 VHH
B12: DR918 (VHH)
VHH: EVQLVESGGGLVQAGGSLRLSCATSGLTDSTYGMAWFRQAPGKEREFVAAISRAGGSADHADSVKGRFTVSRDNAKKMVYLQMNSLKPEDTAVYYCASGRSYSSPYDYFNALAYSYWGQGTQVTVSS
notes: also called hIFNgR1 VHH
B13: DR919 (VHH)
VHH: EVQLVESGGGLVQPGGFLRLSCAASRRTLSTYAMGWFRQAPGKEREFVAAISWRSGNTYYADSVKGRFTISRDNAKNTMYLQMNSLKPEDTAVYYCAANEVATMSGPHDHWGQGTLVTVSS
notes: also called hIFNgR1 VHH
B14: DR923 (VHH)
VHH: QVQLVESGGGLVQAGGSLRLSCAASRRTFMTYAMGWFRQAPGKEREFVAAISWSSGSTYYADSVKGRFTISRDNAKNTMYLQMNSLKPEDTAVYYCTASSIATMYGPNDYAGQGTLVTVSS
notes: also called hIFNgR1 VHH
B15: DR904 (VHH)
VHH: EVQLVESGGGLVQAGGSLRLSCEASESILSINTMGWFRQAPGKQRELVAAISSGGSTNYADSVKGRFTISRDNAKNTVYLQMNSLKPEDTAVYYCDADRAYYKGQGTQVTVSS
notes: also called hIFNgR1 VHH
B16: DR924 (VHH)
VHH: QVQLVESGGGLVQAGGSLRLSCTASGRTFSRYAMGWFRQAPGKEREFVATISRSGGTTSYANSVKGRFTISRDNAKNTVYLQMNSLKTEDTAVYNCAARDGPAMGVFGSDYDYWGQGTLVTVSS
notes: also called hIFNgR1 VHH
B17: DR917 (VHH)
VHH: EVQLVESGGGLVQAGGSLRLSCAASGRTFSGYNMGWFRQAPGKEREFVAAIAWAGSRTYYTDSVKGRFTISRDNAKNTMYLQMNTLRPEDTAVYYCAAHDETYYRLDRVDLYTHWGQGTLVTVSS
notes: also called hIFNgR1 VHH
B18: DR909 (VHH)
VHH: EVQLVESGGGLVQAGGSLRLSCAASGRTFGTSFGALSMGWFRQAPGKEREFVAAITRNTGRTFYADSVKDRFTISRDNAKNTASLQMNSLEPEDTAVYICAATNSYDDLRRSYAYNYWGQGTQVTVSS
notes: also called hIFNgR1 VHH
B19: DR906 (VHH)
VHH: EVQLVESGGGLVQAGGSLRLSCAASGSTFSTYVMGWFRQAPGKEREFVAAISRSGGTTTYADSVKGRFDISRDNGKNTLFLQMNSLIPEDTAAYYCAARAGPAIGRTANDYHSWGQGTLVTVSS
notes: also called hIFNgR1 VHH
B20: DR905 (VHH)
VHH: EVQLVESGGGLVQAGGSLRLSCVASGRTFTGYAMGWFRQAPGKEREFVAVITWSGATTYYSASVKGRFTLSRDNAKNTVYLQMNSLKSEDTAVYYCAIRIRDGVSPENPNEYGYWGQGTQVTVSS
notes: also called hIFNgR1 VHH
B21: DR907 (VHH)
VHH: EVQLVESGGGLVQAGGSLRLSCAASGRTFSNYAMGWFRQAPGNEREFVAAINWNIGSTYYADSVKGRFTISRDNAKNTVYLQMNSLKPEDTAVYYCGAVWPTGRLRVDSEYDYWGQGTQVTVSS
notes: also called hIFNgR1 VHH
B22: DR908 (VHH)
VHH: EVQLVESGGGLVQAGGSLRVTCAASGRTFTSLAMGWFRQAPGKEREFVAAISRSGGSTDYADSVKGRFFISRDNAKSTLYLQMSSLKPEDTAVYYCAARDYSTLQYYNEYEYSDWGQGTQVTVSS
notes: also called hIFNgR1 VHH
B23: DR911 (VHH)
VHH: EVQLVESGGALVQAGGSLRLSCTVSGRSFSTYAMAWFRRAPGKERELVSAITVGGGSTYYVDSVKGRFTISRENAKNTLYLQMNNLKPEDTAIYICAARDYRRRSYAPEAEQYDYWGQGTQVTVSS
notes: also called hIFNgR1 VHH
B24: DR910 (VHH)
VHH: EVQLVESGGGLVQTGGSLRLSCAASGRTFSSYAMAWFRQAPGKEREFVAAISILGGSADYEDSVQGRFTISRDNAKNTMYLQMNSLKPEDTAVYYCAARRPAPSDSYWSSTSYAYWGQGTLVTVSS
notes: also called hIFNgR1 VHH

molecular target: T1, extracellular domain of hIFNgR1 (human, UniProt P15260 18-245); assay: periplasmic extract ELISA on coated antigen
T1 construct: also called hIFNgR1 ECD; human IFNgR1
T1 sequence: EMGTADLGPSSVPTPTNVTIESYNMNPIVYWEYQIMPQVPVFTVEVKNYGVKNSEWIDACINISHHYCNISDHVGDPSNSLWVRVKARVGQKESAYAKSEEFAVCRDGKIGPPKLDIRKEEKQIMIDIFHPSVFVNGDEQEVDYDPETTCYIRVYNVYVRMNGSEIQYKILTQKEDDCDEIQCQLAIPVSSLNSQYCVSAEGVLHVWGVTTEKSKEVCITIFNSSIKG
Method: Upon completion of the biopanning of Example 3, three 96-well plates of individual phage clones were isolated in order to perform periplasmic extract ELISA (PE-ELISA) on IFNgR1 coated plates to identify positive VHH binders that selectively bound IFNgR1. A 96-well plate was coated with IFNgR1 and PBS under the same conditions. Next, wells were blocked at 37° C. for 1 h. Then, […] was added to each well and incubated for 1 h. Subsequently, 100 μl of anti-tag polyclonal antibody conjugated to HRP was added to each well and incubated at 37° C. for 1 h. Plates were developed with TMB substrate. The reaction was stopped by the addition of H2SO4. Absorbance at 450 nm was read on a microtiter plate reader. Antibodies with absorbance of the antigen-coated well at least threefold greater than PBS-coated control were considered to provide specific binding to IFNgR1. Positive clones were sequenced, and sequences analyzed to identify unique clonotypes

Binding result, binds:
B1
B2
B3
B4
B5
B6
B7
B8
B9
B10
B11
B12
B13
B14
B15
B16
B17

molecular target: T2, extracellular domain of mIFNgR1 (mouse, UniProt P15261 26-254); assay: flow cytometry, cross-reactivity
T2 construct: also called mIFNgR1 ECD; mouse IFNgR1
T2 sequence: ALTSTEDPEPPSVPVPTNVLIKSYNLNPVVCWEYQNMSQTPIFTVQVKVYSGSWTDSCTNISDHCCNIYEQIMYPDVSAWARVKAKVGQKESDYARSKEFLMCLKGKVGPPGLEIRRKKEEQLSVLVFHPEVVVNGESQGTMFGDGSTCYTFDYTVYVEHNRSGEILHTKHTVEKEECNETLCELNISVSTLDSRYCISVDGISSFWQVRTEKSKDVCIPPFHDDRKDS

Binding result, binds:
B1
B2
B4
B5
B6
B7
B8
B18
B19
B9
B10
B11
B12
B20
B21
B14
B16
B22
B17
B23
B24

molecular target: T1, extracellular domain of hIFNgR1; assay: flow cytometry

Binding result, binds:
B18
B19
B20
B21
B22
B23
B24
